This note sets out measurements from article PMC2120337.

The target of the test is bacterially expressed beta18 (Drosophila). Put plainly: chymotrypsin protection.
bacterially expressed beta18 (Drosophila), sequence (Q00963 whole entry): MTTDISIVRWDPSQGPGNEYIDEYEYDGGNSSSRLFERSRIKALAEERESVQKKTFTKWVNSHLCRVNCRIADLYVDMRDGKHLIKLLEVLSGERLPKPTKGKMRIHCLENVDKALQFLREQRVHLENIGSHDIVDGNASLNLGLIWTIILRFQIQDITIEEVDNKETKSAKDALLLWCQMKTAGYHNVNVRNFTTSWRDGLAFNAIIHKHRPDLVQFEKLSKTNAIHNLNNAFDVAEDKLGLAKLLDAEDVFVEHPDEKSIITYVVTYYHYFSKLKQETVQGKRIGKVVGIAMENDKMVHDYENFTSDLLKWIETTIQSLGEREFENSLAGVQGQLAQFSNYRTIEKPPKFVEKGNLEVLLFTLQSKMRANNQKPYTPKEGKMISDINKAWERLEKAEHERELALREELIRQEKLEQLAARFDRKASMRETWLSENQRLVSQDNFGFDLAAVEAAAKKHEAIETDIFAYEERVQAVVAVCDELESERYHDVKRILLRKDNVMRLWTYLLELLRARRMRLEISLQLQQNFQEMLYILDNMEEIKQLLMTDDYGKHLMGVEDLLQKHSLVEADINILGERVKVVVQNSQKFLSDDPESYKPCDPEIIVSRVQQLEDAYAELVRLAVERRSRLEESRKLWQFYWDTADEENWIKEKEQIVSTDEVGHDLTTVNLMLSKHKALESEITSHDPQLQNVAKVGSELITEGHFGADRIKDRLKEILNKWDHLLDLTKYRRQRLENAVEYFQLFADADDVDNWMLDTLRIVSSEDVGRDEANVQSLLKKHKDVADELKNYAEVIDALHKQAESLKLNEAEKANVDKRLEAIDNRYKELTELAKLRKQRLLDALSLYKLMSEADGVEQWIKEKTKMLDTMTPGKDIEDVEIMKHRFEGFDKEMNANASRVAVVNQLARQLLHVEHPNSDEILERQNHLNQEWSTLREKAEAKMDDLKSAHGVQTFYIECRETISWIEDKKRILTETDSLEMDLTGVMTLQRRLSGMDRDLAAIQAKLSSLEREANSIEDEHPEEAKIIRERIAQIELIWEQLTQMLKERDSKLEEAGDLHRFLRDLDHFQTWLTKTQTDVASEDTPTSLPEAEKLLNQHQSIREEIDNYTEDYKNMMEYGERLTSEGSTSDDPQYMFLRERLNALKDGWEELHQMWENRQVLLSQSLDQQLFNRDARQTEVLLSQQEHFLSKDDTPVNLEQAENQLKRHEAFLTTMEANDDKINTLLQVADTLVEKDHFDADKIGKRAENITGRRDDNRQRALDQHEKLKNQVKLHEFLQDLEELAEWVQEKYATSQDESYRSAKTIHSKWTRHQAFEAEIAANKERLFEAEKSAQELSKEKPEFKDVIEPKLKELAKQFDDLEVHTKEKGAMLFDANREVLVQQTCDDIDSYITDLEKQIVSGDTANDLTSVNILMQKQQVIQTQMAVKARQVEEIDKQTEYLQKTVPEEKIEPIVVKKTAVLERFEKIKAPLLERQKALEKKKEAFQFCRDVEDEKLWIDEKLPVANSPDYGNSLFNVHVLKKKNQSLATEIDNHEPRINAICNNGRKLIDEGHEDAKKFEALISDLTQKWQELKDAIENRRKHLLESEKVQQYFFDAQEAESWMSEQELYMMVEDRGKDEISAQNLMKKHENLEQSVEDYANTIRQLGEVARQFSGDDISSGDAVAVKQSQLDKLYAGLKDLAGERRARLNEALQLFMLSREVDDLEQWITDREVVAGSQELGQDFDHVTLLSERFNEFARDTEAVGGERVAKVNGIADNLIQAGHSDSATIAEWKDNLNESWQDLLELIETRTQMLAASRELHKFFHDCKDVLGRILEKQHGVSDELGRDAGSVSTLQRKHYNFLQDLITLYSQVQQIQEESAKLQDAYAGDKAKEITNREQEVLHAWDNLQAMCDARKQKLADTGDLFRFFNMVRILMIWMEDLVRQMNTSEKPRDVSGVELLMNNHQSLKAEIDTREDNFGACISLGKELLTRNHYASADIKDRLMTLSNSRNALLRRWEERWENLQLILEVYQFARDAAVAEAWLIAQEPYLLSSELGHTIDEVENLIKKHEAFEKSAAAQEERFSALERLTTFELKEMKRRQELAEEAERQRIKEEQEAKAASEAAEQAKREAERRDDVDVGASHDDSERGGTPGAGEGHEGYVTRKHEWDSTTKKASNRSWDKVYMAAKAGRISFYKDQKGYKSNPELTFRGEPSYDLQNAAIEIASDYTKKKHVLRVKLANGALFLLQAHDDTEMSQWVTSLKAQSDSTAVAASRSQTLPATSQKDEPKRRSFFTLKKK

B1: bacterially expressed alpha0-1(R22S) (domain or fragment)
chain: MENFTPKEVKILETVEDIQERSEQVLSRYNDFKIETRQKREKLEDSRRFQYFKRDADELESWIHEKLQAASEESYRDPTNLQAKIQKHQAFEAEVSAHSNAIVSLDNTGQEMINQQHFASESIQVRLDELHKLWELLLSRLAEKGLKLQQ
With B1, the percent intact (chymotrypsin protection, beta18 present) turned out to be 61.2%.
